This data set can be described thus: soluble on expression in E. coli; label from the status in PepcDB or PDB records.
Take “MGSDKIHHHHHHAQQQELPVPKPHQLKWHEAEMGAVFHYDLHVFDGIRYGQGNNRINPIEDYNIFNPTELNTDQWVQAAKAAGCKFAVLTATHETGFGLWQSDVNPYCLKAVKWRDGKGDIVRDFVNSCRKYGLQPGIYIGIRWNSLLGIHNFKAEGEGAFARNRQAWYKRLCEKMVTELCTRYGDLYMIWFDGGADDPRADGPDVEPIVNKYQPNCLFYHNIDRADFRWGGSETGTVEYPCWSTFPVPCSHHKRIESSIDQLELLKHGDKNGRYWVPAMADTPLRGANGRHEWFWEPDDENNIYPLNTLMDKYEKSVGRNATLILGLTPDPTGLIPAGDAQRLKEMGDEINRRFSSPIARISGQKKSLTLKLGKEQSVNYCIIQENIKNGERIRQYQIEAKVNGKWQTVCKGESVGHKRIEKFEPVEATALRLTVSESIALPDIINFSAYSVK”: the “soluble on expression in E. coli” value is “not soluble”.

For “MKIAIASGKGGTGKTTVAVNLALALEEVQLFDCDVEEPNCNLFLGFEMEPVEEVVFLVPEINPDKCTLCRGCSDFCRYNALAAIPNRILSFPSLCHGCGGCSFVCPAGAIEEKPETIGIIQKALSDSPLTFFCGTLKIGKATATPVIKSLQNHIDESRPAIIDSPPGTACPVLAVMGFADYCVLVTESTPFGFHDFCLALEAARALNVPVGVVLNRDGLGDSRVEDFCRAEGIPILLRIPNDRTIARLYSEGIPFVKEMPEWKKQFKDMFETIKTGLYESKGVQLEHHHHHH”, the “soluble on expression in E. coli” value is listed as “not soluble”.

For the sequence “MGSDKIHHHHHHMTDTAPAANIATLSELLKLSGSQYRLYDIGRLVSELPKEQFEKVELNQLPYPTPTQGCACIAIAFWQKQSSQPYLWLLKLPLDERGLLNQGARNHFIAIIVEALGADLTQETSKKQEELLSSNPYLFTPAQYKLASLNSKIKVDLKQQPSAYFSPFREYLSHGSDWGNWQGVGVQGITDFIARIKHDNHSELLLNALPHLPDEVLSPVCSALENEQYPVVLIDALVSALENALIIPDNSVKTMQLLRSLAANSDHTHVRKVVGQLLSNQEVSSELLITLSGRCWQALADEKMLMCYFEHLLSNNNLPLFSSIFKDLVTIPLIRPVAFQCIRSEDRSPALAQAIGQLLSQT”, the “soluble on expression in E. coli” value is given as “not soluble”.

Take “MGSDKIHHHHHHMTTNIKTDFSPPATATPVLEMQGIAKRFHGVPALQGVNLTIYPGEVHALMGENGAGKSTLMKILAGAYIADEGEIRINGKGVKITDPGTARQAGINLIYQELNVAPNLTVTENIFMGSELTRGQFLDRKAMELEAQQVLASLGASFAPTDIVGTLAIAEQQQVEIARALKDNSRILVMDEPTAALSDRETERLFEVIRKLRNDGIAIIYISHRMEEIYALADRISVLRDGQYIGSLTREEISPQRLVQMMVGRSMQDFYEHQRQSNPGPVVLEVRNISDGRKVQPASFQLRAGEILGLAGLVGAGRTEVSRLIFGADRKVSGEVFLNGKKLEIHSPSDAIAVGIGYVPEDRKDQGLFLEMSSRKNIGLNRLKQDANLGIVNWGSVNKIATDAVENFHIRLANLEIRAVDLSGGNQQKLLLARWLAINPRVLMLDEPTRGVDIGAKSEIYRIISDLSAQGVAILMVSSELPEIVGLSDRVLVMREGQLVGELDNSIGKEITQENIMHYATGASEVTAS”: the “soluble on expression in E. coli” value is given as “not soluble”.

Take “MAHHHHHHMFFCPFCSTLLLVVPHVEGNALVCATCRYVHSVASASPQVPRNAFGEPILTIQHSFVAHNRQLMDAEEDPAMEAAASSSAAACHTTAAFTPVVKAETSAEGGQITTIPCQNEDNPCQSTKAYFIQIQMRSADEPATVFFKCVECGHQWRQD”: the “soluble on expression in E. coli” value was “not soluble”.

For “MGSDKIHHHHHHMQSRMHPRYYLSLEIFEREQKKIFRKAWLFAGLKTLLSEHNAFITRRIAGIPIVIQNFHGELRAFENVCLHRNALLQTEAVGKRPLVCAYHAWRYDAEGRVDHIPECDAVYRFSAEEKQGLKLRRFALHAVGNVLFINLDTDPLPFEEQFTPAFIDLLESSSNTYDTEVMVTTWHGKFNWKLAYENLRDANHPRFVHPKSLAKTVKFTPTVDEALFRESGLQLTDTSPSALRREMRRFSHAGADAPIPDLQHFGWHELVERWGDQDSYYNWLAFPNLHIASANGGFSFTLEHHIPIAPDRTDLEIYWFTARKKQAYAFSHQVLLAQMHGSKLVVGEDVEIMEQVQAALHADAPLPNQGAYESSNRLVERWYTTLMDGDHDI”, the “soluble on expression in E. coli” value is “not soluble”.

Turning to “MRGSHHHHHHGSLVPRGSMVAADAPAAGTDITNQLTNVTVGIDSGTTVYPHQAGYVKLNYGFSVPNSAVKGDTFKITVPKELNLNGVTSTAKVPPIMAGDQVLANGVIDSDGNVIYTFTDYVNTKDDVKATLTMPAYIDPENVKKTGNVTLATGIGSTTANKTVLVDYEKYGKFYNLSIKGTIDQIDKTNNTYRQTIYVNPSGDNVIAPVLTGNLKPNTDSNALIDQQNTSIKVYKVDNAADLSESYFVNPENFEDVTNSVNITFPNPNQYKVEFNTPDDQITTPYIVVVNGHIDPNSKGDLALRSTLYGYNSNIIWRSMSWDNEVAFNNGSGSGDGIDKPVVPEQPDEPGEIEPIPEK”, the “soluble on expression in E. coli” value is listed as “soluble”.

For the sequence “MGSSHHHHHHGGTGENLYFQGGSGAGIKSRERLRRDQERQLRQLPFLYHRVKDLQDTCERLEQELASSHQRVAAFQQEAFALRSLIKFTEHPELAAAAKNDAAKHVLQEEVRELRNQVQRLRREKELSLRQSEEACEAAEFYKELCDQLYEESLRAAEAIAVGGATSGLESVVTPLPNRNVDDMTLAVSTAPSTATSMEAQMRQLHGALELERARSSALVETVSLLHTAMKATTAAGTKRSTPAPDSSAGWAERRREDDTSGICASRSRVFADDTRKSRTRLKRLAAVLRVENRLLTQRVTEVVARNMRCVKEISALKLANKRLELNQRQES”, the “soluble on expression in E. coli” value is reported as “soluble”.

Regarding “GPLGSMADSQDPLHERTRRLLSDYIFFCAREPDTPEPPPTSVEAALLRSVTRQIQQEHQEFFSSFCESRGNRLELVKQMADKLLSKDQDFSWSQLVMLLAFAGTLMNQGPYMAVKQKRDLGNRVIVTRDCCLIVNFLYNLLMGRRHRARLEALGGWDGFCRFFKNPLPLG”, the “soluble on expression in E. coli” value is recorded as “soluble”.

Take “MEPPLWVFGYGSLIWDPGFPVARSVIARLDGWHRSFCMHSIHYRGTATDPGLVLALDAAPGGACLGVGFQVTPGAEAETLAALRKRELISNAYLERWLPVTLATGETVEAVSYVIDPDHGQYCGGLDLEAQAQIIARAAGERGPNRDYLLHTVAHLQSLGISDPDLCWLATRVRALGNDPVSAAALEHHHHHH”: the “soluble on expression in E. coli” value is recorded as “not soluble”.

Regarding “MGSDKIHHHHHHMTPRDTVAAFPATSQQSAIRATPFVWIEPANIPPRKWLYGHHLIRGYVSLTVAPGATGKSSLLIADALAMSANRNLVGTPVYAGRPLRVWIWNLEDPIDELQRRITATAIQYQIHSTDIEGRLFVDSGRDQSLCIARQGHNGIEILDPVIDALQAEILAREIDVLIVDPFVSSHQVSENDNGAIDAVAKKWGAIADRTGCAIELVHHLRKLPHGIEATAESARGAVSLVAAARSVRVLNRMAKEEALQCGLTSNKGHFKVSDDKNNLAAATDSENWFRMESVQLDNGDNVGVVVQWDKPDPFDGITPRHLLAVQKAIDGKDYRQNVQATDWVGQHIGHIVGLDPAKPHDKNRLKSLIKTWINNGALIADEIMNKKGRPTPVIAVGKWVTAAEVAATNVADDEFPLG”, the “soluble on expression in E. coli” value was “not soluble”.

For the sequence “MPLSGEYAPSPLDWSREQADTYMKSGGTEGTQLQGKPVILLTTVGAKTGKLRKTPLMRVEHDGQYAIVASLGGAPKNPVWYHNVVKNPRVELQDGTVTGDYDAREVFGDEKAIWWQRAVAVWPDYASYQTKTDRQIPVFVLTPVRAGG”, the “soluble on expression in E. coli” value is given as “soluble”.

On to “MTSPYATIVDAREFNAPMFAEKIDRALRAGEKDAVVNVITSISNAQRQQLREPYKLKYGKDIIQALDKKFSGDLEKAIFALMETPLDYDVKQLKAAMKGLGTDEAVLIEILCSRTVDQLRAIRVTYEKEYGKALEADIAGDTSGEFRDLLVSLVTGSKDGSHDTNDAQAKDDAVRLFADGKAKLAKKDGTHFLHILATQNQYQLRKVFAYFQELAGGSIEKSIEKEFSGDLQKSYLTIVRAASDKQKFFAQQLHASMKGLGTRDNDLIRVIVTRSEVDLELIKAEFQELYSKSLADTVKGDTSGAYRDALLSIINGNHATAH”, for which the “soluble on expression in E. coli” value is recorded as “not soluble”.

On to “MAHHHHHHMLAPTVTREACQPIINAFRCAAEKGQTQTDVDAESWGREVTRINAEAQKAWSEQRKPFIPAMYLRRRDPAAEEALRLLRVTSKAFELNLRFREIEKLDEMHAKLWALLSADKTRLTITIIEYMEILKKFKAWQEERFEGTPKASPQREASVQSSQECLDDTTPLGSVVYLASVMQPRPSLQLYLSCPRSPAGGVEVVHIYQRFAKQVSLVKCEAELIMWDTNNDGCLTEDEMESYVRDLVPRIEALRDITEDILPFYCCTVSRRIFWVLDPGSRGAIRIDMLLQNPVMDEWVSLQLMREDQPRNWFSAAITSHLYDKFLLLDTRNRGTLNADDMKRYKKGLPTVMDDGLPPGVGPLSSLFIDRFFETNVMMANSELDFRKFVDFVVAVEFLPSCQRPLFFWNILDIEGCGYLKPVHVNYFFRETHTKLVAAGLEVPSRETVVQEAFDLISTAEPLCISREEFINAPQAGLFVALLVDCLSFWTYENREQR”, for which the “soluble on expression in E. coli” value was “not soluble”.

For the sequence “MSTQVQDRIHDRRELTAVLLRALEQRHEVLDAIVDSEDHAEALTTVAGLLDTSEAYAEAVLNLTFRRLTKVERLRIQTELKDLDATLEWTSTDRPASTGRNFRLRPFTDTEEDAELFRRRCGEQVDDAGAQWSEDRVEKERTEGLSRVDDESAAWFVCEDTAENTAVGMVFGELSGREVDVAIWIAPDARKKGYGTAAVKHSRQELAAEFPGTVLVVR”, the “soluble on expression in E. coli” value was “not soluble”.

For “MAASMTKPISITSLGFYSDRKNIAFSDCISICSGFRHSRPSCLDLVTKSPSNNSRVLPVVSAQISSDYIPDSKFYKVEAIVRPWRIQQVSSALLKIGIRGVTVSDVRGFGAQGGSTERHGGSEFSEDKFVAKVKMEIVVKKDQVESVINTIIEGARTGEIGDGKIFVLPVSDVIRVRTGERGEKAEKMTGDMLSPS”, the “soluble on expression in E. coli” value is “not soluble”.

As for “MHCDLPCGVYDPAQARIEAESVKAVQEKMAGNDDPHFQTRATVIKEQRAELAKHHVSVLWSDYFKPPHFEKYPELHQLVNDTLKAMSAAKGSKDPATGQKALDYIAQIDKIFWETKKA”, the “soluble on expression in E. coli” value was “soluble”.

For “MKYYHHHHHHDYDIPTTENLYFQGAMAFDGEDEVTGPDADRARAAAVQAVPGGTAGEVETETGEGAAAYGVLVTRPDGTRVEVHLDRDFRVLDTEPADGDGG”, the “soluble on expression in E. coli” value is “soluble”.

As for “MNYIESLISSVDSQIDTLNKAMIEVQSTIDLLSNGDLASSPEKLISIGSGLFAKGNITIDEDLIVPIGSGIYVAETKERSVERLKKNLEDIKASIQKLLDQRKTLVDQYNTVYATEATRNVK”, the “soluble on expression in E. coli” value is reported as “not soluble”.

As to “SLLPNILLTGTPGVGKTTLGKELASKSGLKYINVGDLAREEQLYDGYDEEYDCPILDEDRVVDELDNQMREGGVIVDYHGCDFFPERWFHIVFVLRTDTNVLYERLETRGYNEKKLTDNIQCEIFQVLYEEATASYKEEIVHQLPSNKPEELENNVDQILKWIEQWIKDHNS”, the “soluble on expression in E. coli” value is on record as “soluble”.

Regarding “MLLRILIADDEPLARERLRVLLQAQMQHLEVVAEAENGEQVLHDCQRLNPDLVLMDIAMPGIDGLETARYLRYLPACPAVVFCTAYGDHALSAFDVEAIDYLMKPVRAERLHAALKRVQTFVAGRLREPQTSCDETPRTHLCVRIRGGLRLIPLDQVRYLQADEKYVVICHEQGEDLIEESLKSLEKEFSDRFVRIHRNCLIARAELTELRRCSDGQVQAVLRNVVTPLAVSRRCVPLLCDQLRLSAVLTGRWLEHHHHHH”, the “soluble on expression in E. coli” value is reported as “not soluble”.

As for “GSGTMEKGTFTLKDIYKQIEAMNKMGPVRKIFEMLPFGLGLKVDNDVMEMTQEKMKKFRVIMDSMTEEELLNPKIIDSSRIRRIAIGSGTSPQEVKELLNYYKTMKNLMKKMKKNKLPI”, the “soluble on expression in E. coli” value is given as “soluble”.

For the origin of these results see the DeepSol protein solubility set.
